Data published in US20170107293A1 (BIOINVENT INTERNATIONAL, published 2017).
Blank lines part the entries; values can stand above or below the binder they belong to.

How the values were obtained:
human FcγRIIA on cells [1] = biological target: T1, human FcγRIIA on cells (human, UniProt P12318 34-317); assay: binding to FcγRIIA-transfected CHO-k1 cells
T1 construct: whole, on cells; also called hFcγRIIA; FcγRIIA^+ve CHO
T1 sequence (looked up): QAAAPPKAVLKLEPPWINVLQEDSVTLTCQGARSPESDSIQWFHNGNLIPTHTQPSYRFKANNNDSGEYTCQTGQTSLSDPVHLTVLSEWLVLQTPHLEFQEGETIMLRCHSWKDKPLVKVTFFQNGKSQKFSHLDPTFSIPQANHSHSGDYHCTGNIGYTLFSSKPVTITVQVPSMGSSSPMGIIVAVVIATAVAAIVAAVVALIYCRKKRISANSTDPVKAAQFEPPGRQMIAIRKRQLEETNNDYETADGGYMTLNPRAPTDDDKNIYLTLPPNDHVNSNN

human FcγRIIA on cells [2] = biological target: T1, human FcγRIIA on cells; assay: flow cytometry on human PBMC populations, MFI; monocytes and neutrophils read as hFcγRIIA-bearing as in the legend
[3] = biological target: T2, Soluble hFcγRIIB (R & D Systems) (human, UniProt P31994 46-217); assay: SPR (Biacore T100), mAb immobilised on CM5, soluble hFcγRIIB injected, 1:1 model; column headed KD (1/s)
T2 construct: Bought reagent; also called hFcγRIIB fusion protein
T2 sequence (looked up): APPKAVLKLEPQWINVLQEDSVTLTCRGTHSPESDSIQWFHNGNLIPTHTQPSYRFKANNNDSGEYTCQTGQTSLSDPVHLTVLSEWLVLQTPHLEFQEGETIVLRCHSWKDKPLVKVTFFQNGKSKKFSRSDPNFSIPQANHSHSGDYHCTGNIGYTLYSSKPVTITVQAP
Method: (§1) A BIAcore T100 analyzer (GE Healthcare, UK) was used to determine the binding affinity of the hFcγRIIB mAb, as described elsewhere.²⁵ mAb were immobilized onto a CM5 sensorchip (GE Healthcare, UK), using standard amine coupling according to the manufacturer's instructions. Soluble hFcγRIIB (0.16-100 nM; R & D Systems, UK) was injected for 5 minutes and dissociation monitored for 10 minutes. Background binding to the control flow cell was monitored and subtracted automatically. The KD values were calculated from the 1:1 binding model using the BIAcore T100 Evaluation software.

[4] = biological target: T2, Soluble hFcγRIIB (R & D Systems); assay: SPR (Biacore T100), mAb immobilised on CM5, soluble hFcγRIIB injected, 1:1 model; column headed KA (1/MS)
Method: as §1

[5] = biological target: T2, Soluble hFcγRIIB (R & D Systems); assay: SPR (Biacore T100), mAb immobilised on CM5, soluble hFcγRIIB injected, 1:1 model
Method: as §1

human FcγRIIB on cells = biological target: T3, human FcγRIIB on cells (human, UniProt P31994 43-310); assay: flow cytometry, mAb at 0.1, 1 and 10 µg/ml on B cells, MFI
T3 construct: whole, on cells; also called hFcγRIIB; CD32B
T3 sequence (looked up): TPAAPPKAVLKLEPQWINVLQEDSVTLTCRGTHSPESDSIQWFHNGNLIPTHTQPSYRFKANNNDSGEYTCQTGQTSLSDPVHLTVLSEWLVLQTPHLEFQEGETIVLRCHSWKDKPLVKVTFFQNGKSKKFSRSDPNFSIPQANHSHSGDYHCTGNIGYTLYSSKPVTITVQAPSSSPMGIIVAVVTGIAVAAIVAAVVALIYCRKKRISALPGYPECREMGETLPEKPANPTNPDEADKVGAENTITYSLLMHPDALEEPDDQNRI

[6] = biological target: T2, Soluble hFcγRIIB (R & D Systems); assay: SPR, mAb immobilised, soluble hFcγRIIB injected; column headed KD (1/s)
Method: as §1

mouse FcγRIIB = biological target: T4, mouse FcγRIIB (mouse, UniProt P08101 30-330); assay: IHC on frozen tissue sections
T4 construct: whole, on cells; also called mFcγRII; FcγRIIB in other species
T4 sequence (looked up): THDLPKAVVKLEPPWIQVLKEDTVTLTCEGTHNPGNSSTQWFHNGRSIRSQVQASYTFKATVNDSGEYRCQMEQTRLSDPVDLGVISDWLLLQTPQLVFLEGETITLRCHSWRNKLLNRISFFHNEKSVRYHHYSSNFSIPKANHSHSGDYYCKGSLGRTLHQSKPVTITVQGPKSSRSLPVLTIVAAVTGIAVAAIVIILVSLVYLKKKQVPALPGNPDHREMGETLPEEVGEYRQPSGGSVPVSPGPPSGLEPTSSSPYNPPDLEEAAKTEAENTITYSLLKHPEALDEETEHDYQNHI

rat FcγRIIB = biological target: T5, rat FcγRIIB (rat, UniProt A0A0G2K9R6 42-295); assay: IHC on frozen tissue sections
T5 construct: also called FcγRIIB in other species
T5 sequence: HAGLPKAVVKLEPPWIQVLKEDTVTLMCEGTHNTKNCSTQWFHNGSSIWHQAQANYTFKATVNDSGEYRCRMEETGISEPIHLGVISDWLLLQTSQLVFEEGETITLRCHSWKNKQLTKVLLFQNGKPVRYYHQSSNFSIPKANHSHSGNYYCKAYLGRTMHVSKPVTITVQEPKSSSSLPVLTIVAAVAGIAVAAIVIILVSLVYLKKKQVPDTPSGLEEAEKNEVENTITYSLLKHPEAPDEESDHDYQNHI

[7] = biological target: T6, cynomolgus monkey FcγRIIB (cynomolgus monkey, UniProt A0A140HDP4 43-312); assay: IHC on frozen tissue sections
T6 construct: whole, on cells; also called FcγRIIB in other species
T6 sequence: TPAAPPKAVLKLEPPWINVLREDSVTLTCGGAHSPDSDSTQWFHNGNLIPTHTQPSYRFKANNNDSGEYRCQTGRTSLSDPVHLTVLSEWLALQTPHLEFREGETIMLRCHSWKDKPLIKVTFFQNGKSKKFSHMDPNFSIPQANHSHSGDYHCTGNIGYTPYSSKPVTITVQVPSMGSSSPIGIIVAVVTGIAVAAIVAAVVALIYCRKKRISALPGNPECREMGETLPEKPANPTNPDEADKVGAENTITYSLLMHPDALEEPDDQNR

[8] = biological target: T2, Soluble hFcγRIIB (R & D Systems); assay: SPR, mAb immobilised, soluble hFcγRIIB injected; column headed KA (1/MS)
Method: as §1

[9] = biological target: T2, Soluble hFcγRIIB (R & D Systems); assay: SPR, mAb immobilised, soluble hFcγRIIB injected
Method: as §1

B1: 6C12 (antibody, human IgG1, V domains shown)
VH: EVQLLESGGGLVQPGGSLRLSCAASGFTFSSYGMHWVRQAPGKGLEWVAVISYDGSNKYYADSVKGRFTISRDNSKNTLYLQMNSLRAEDTAVYYCARERRDAFDIWGQGTLVTVSS
VL: QSVLTQPPSASGTPGQRVTISCTGSSSNIGAGYDVHWYQQLPGTAPKLLIYSDNQRPSGVPDRFSGSKSGTSASLAISGLRSEDEADYYCATWDSDTPVFGGGTKLTVLG
notes: hFcγRIIB mAb, human IgG1 (WT); Only VH/VL tied to the clone; also called Antibody clone: 6C12
binding result (human FcγRIIA on cells [1]): no binding

B2: 6H08 (antibody, human IgG1, V domains shown)
VH: EVQLLESGGGLVQPGGSLRLSCAASGFTFNNYGMHWVRQAPGKGLEWVAVISYDGSNKYYADSVKGRFTISKDNSKNTLYLQMNSLRAEDTAVYYCAREYKDAFDIWGQGTLVTVSS
VL: QSVLTQPPSASGTPGQRVTISCTGSSSNIGSNTVNWYQQLPGTAPKLLIYDNNKRPSGVPDRFSGSKSGTSASLAISGLRSEDEADYYCQAWGTGIRVFGGGTKLTVLG
notes: hFcγRIIB mAb, human IgG1 (WT); Only VH/VL tied to the clone; also called Antibody clone: 6H08
binding result (human FcγRIIA on cells [1]): no binding

B3: 4B02 (antibody, human IgG1, V domains shown)
VH: EVQLLESGGGLVQPGGSLRLSCAASGFTFSNHGMHWVRQAPGKGLEWVAVISYDGTNKYYADSVRGRFTISRDNSKNTLYLQMNSLRAEDTAVYYCARETWDAFDVWGQGTLVTVSS
VL: QSVLTQPPSASGTPGQRVTISCSGSSSNIGSNNANWYQQLPGTAPKLLIYDNNKRPSGVPDRFSGSKSGTSASLAISGLRSEDEADYYCQAWDSSTVVFGGGTKLTVLG
notes: hFcγRIIB mAb, human IgG1 (WT); Only VH/VL tied to the clone; also called Antibody clone: 4B02
binding result (human FcγRIIA on cells [1]): no binding

B4: 6A09 (antibody, human IgG1, V domains shown)
VH: EVQLLESGGGLVQPGGSLRLSCAASGFTFSSYGMHWVRQAPGKGLEWVAVTSYDGNTKYYANSVKGRFTISRDNSKNTLYLQMNSLRAEDTAVYYCAREDCGGDCFDYWGQGTLVTVSS
VL: QSVLTQPPSASGTPGQRVTISCTGSSSNIGAGYDVHWYQQLPGTAPKLLIYGNSNRPSGVPDRFSGSKSGTSASLAISGLRSEDEADYYCAAWDDSLNEGVFGGGTKLTVLG
notes: hFcγRIIB mAb said to be likely dual-specific for hFcγRIIA and B; human IgG1 (WT); Only VH/VL tied to the clone; also called Antibody clone: 6A09
binding result (human FcγRIIA on cells [2]): binds

B11: 7C07 (antibody, human IgG1, V domains shown)
VH: EVQLLESGGGLVQPGGSLRLSCAASGFTFSSYGMHWVRQAPGKGLEWVAVISYDGSNKYYADSVKGRFTISRDNSQNTLYLQMNSLRAEDTAVYYCAREFGYIILDYWGQGTLVTVSS
VL: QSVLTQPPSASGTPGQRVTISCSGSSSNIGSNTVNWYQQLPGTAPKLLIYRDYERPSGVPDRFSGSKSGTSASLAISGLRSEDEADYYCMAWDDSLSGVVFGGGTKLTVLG
notes: Antagonistic hFcγRIIB mAb, human IgG1 (WT); Only VH/VL tied to the clone; also called Antibody clone: 7C07
koff [6]: 0.0185 s⁻¹ | binding result (mouse FcγRIIB): no binding | binding result (rat FcγRIIB): no binding | binding result [7]: no binding | koff [3]: 0.0185 s⁻¹ | kon [4]: 913000 M⁻¹ s⁻¹ | Kd [5]: 23.9 nM | kon [8]: 913000 M⁻¹ s⁻¹ | Kd [9]: 23.9 nM

Results, then the binder that gave them:

binding result (human FcγRIIA on cells [1]): no binding
B5: 5E12 (antibody, human IgG1, V domains shown)
VH: EVQLLESGGGLVQPGGSLRLSCAASGFTFSSYGMHWVRQAPGKGLEWVAVISYDGINKDYADSMKGRFTISRDNSKNTLYLQMNSLRAEDTAVYYCARERKDAFDIWGQGTLVTVSS
VL: QSVLTQPPSASGTPGQRVTISCTGSSSNIGAGYDVHWYQQLPGTAPKLLIYSNNQRPSGVPDRFSGSKSGTSASLAISGLRSEDEADYYCATWDDSLNGLVFGGGTKLTVLG
notes: hFcγRIIB mAb, human IgG1 (WT); Only VH/VL tied to the clone; also called Antibody clone: 5E12

binding result (human FcγRIIA on cells [1]): no binding | koff [3]: 0.337 s⁻¹ | kon [4]: 472000 M⁻¹ s⁻¹ | Kd [5]: 713 nM
B6: 6G08 (antibody, human IgG1, V domains shown)
VH: EVQLLESGGGLVQPGGSLRLSCAASGFTLSSYGISWVRQAPGKGLEWVSGISGSGGNTYYADSVKGRFTISRDNSKNTLYLQMNSLRAEDTAVYYCASSVGAYANDAFDIWGQGTLVTVSS
VL: QSVLTQPPSASGTPGQRVTISCTGSSSNIGAGYDVHWYQQLPGTAPKLLIYGDTNRPSGVPDRFSGSKSGTSASLAISGLRSEDEADYYCAAWDDSLNGPVFGGGTKLTVLG
notes: hFcγRIIB mAb (agonistic), human IgG1 (WT); Only VH/VL tied to the clone; also called Antibody clone: 6G08

binding result (human FcγRIIB on cells): no binding (tested: 10 µg/ml)
B7: 1E05 (antibody, human IgG1, V domains shown)
VH: EVQLLESGGGLVQPGGSLRLSCAASGFTFSTYAMNWVRQVPGKGLEWVAVISYDGSNKNYVDSVKGRFTISRDNSKNTLYLQMNSLRAEDTAVYYCARNFDNSGYAIPDAFDIWGQGTLVTVSS
VL: QSVLTQPPSASGTPGQRVTISCTGSSSNIGAGYDVHWYQQLPGTAPKLLIYDNNSRPSGVPDRFSGSKSGTSASLAISGLRSEDEADYYCAAWDDSLGGPVFGGGTKLTVLG
notes: Only VH/VL tied to the clone; also called Antibody clone: 1E05

binding result (human FcγRIIA on cells [1]): no binding
B8: 6C11 (antibody, human IgG1, V domains shown)
VH: EVQLLESGGGLVQPGGSLRLSCAASGFTFDDYGMSWVRQAPGKGLEWVSAISGSGSSTYYADSVKGRFTISRDNSKNTLYLQMNSLRAEDTAVYYCAGGDIDYFDYWGQGTLVTVSS
VL: QSVLTQPPSASGTPGQRVTISCTGSSSNFGAGYDVHWYQQLPGTAPKLLIYENNKRPSGVPDRFSGSKSGTSASLAISGLRSEDEADYYCAAWDDSLNGPVFGGGTKLTVLG
notes: hFcγRIIB mAb, human IgG1 (WT); Only VH/VL tied to the clone; also called Antibody clone: 6C11

binding result (human FcγRIIA on cells [1]): no binding
B9: 6G03 (antibody, human IgG1, V domains shown)
VH: EVQLLESGGGLVQPGGSLRLSCAASGFTFGSYGMHWVRQAPGKGLEWVSGISWDSAIIDYAGSVKGRFTISRDNSKNTLYLQMNSLRAEDTAVYYCAKDEAAAGAFDIWGQGTLVTVSS
VL: QSVLTQPPSASGTPGQRVTISCTGSSSNIGAGYDVHWYQQLPGTAPKLLIYGNTDRPSGVPDRFSGSKSGTSASLAISGLRSEDEADYYCAAWDDSLSGPVVFGGGTKLTVLG
notes: hFcγRIIB mAb, human IgG1 (WT); Only VH/VL tied to the clone; also called Antibody clone: 6G03

binding result (human FcγRIIB on cells): no binding (tested: 10 µg/ml)
B10: 1C04 (antibody, human IgG1, V domains shown)
VH: EVQLLESGGGLVQPGGSLRLSCAASGFTFSSYAMSWVRQAPGKGLEWVSSISDSGAGRYYADSVEGRFTISRDNSKNTLYLQMNSLRAEDTAVYYCARTHDSGELLDAFDIWGQGTLVTVSS
VL: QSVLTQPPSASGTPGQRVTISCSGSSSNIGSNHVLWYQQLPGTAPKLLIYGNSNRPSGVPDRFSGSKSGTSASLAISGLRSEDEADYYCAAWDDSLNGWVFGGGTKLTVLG
notes: Only VH/VL tied to the clone; also called Antibody clone: 1C04

binding result (human FcγRIIB on cells): no binding (tested: 10 µg/ml)
B12: 2A09 (antibody, human IgG1, V domains shown)
VH: EVQLLESGGGLVQPGGSLRLSCAASGFTFSNAWMSWVRQAPGKGLEWVAYISRDADITHYPASVKGRFTISRDNSKNTLYLQMNSLRAEDTAVYYCTTGFDYAGDDAFDIWGQGTLVTVSS
VL: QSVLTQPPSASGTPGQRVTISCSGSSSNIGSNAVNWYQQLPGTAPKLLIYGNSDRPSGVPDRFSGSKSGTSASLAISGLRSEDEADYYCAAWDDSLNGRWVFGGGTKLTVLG
notes: Only VH/VL tied to the clone; also called Antibody clone: 2A09
